Measured values as given in patent publication US20220144916A1.

Legend:
[1] = biological target: KJ1-26 clonotypic antibody
[2] = biological target: OVA/I-Ad on murine A20 antigen presenting cells pulsed with OVA323-339 peptide (hen; mouse) (UniProt P01012)

In the case of “DO11.10 scTCR-Fc fusion protein (Vβ-linker-Vα format)”, the EC50 (read off the curve) [1] is reported as 0.03 nM and the Half-life [2] is reported as 5.5 min.
